Test results: the supplement of paper PMC10567573

B1: OAS1 (parent)
chain: LQLGEGVEFDVLPAFDALGQLTGG

Variants of: B1
Test: protein stability index of a GFP-peptide fusion (GPS, HEK-293T) (PSI 1-6); higher = more stable
Conditions: c terminus: a fixed tail appended
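Further: lentivirally expressed fusions sorted by FACS into six bins by GFP to DsRed ratio, PSI derived from sequencing read proportions per bin multiplied by bin number.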

Point of comparison: LQAGEGVEFDVLPAFDALGQLTGG [L3A], protein stability index 3.65. Against it:
- LQLGEGVEFDVLPAFKALGQLTGG [D16K] — lower, 1.81
- LQLGEGVEFDVLPAFSALGQLTGG [D16S] — lower, 1.07
- LQLGEGVEFDVLPAFHALGQLTGG [D16H] — lower, 2.26
- LQLGEGVEFDVLPAFAALGQLTGG [D16A] — lower, 1.79
- LQLGEGVEFDVLPAFPALGQLTGG [D16P] — lower, 2.46
- LQLGEGVEFDVLPAFCALGQLTGG [D16C] — lower, 1.34
- LQLGEGVEFDVQPAFDALGQLTGG [L12Q] — lower, 2.59
- LQLGEGVEFDVFPAFDALGQLTGG [L12F] — lower, 1.54
- LQLGEGVEFDVHPAFDALGQLTGG [L12H] — lower, 3.08
- LQLGEGVEFDVVPAFDALGQLTGG [L12V] — lower, 2.24
- LQLGEGVEFDVTPAFDALGQLTGG [L12T] — lower, 2.4
- LQLGEGVEFDVDPAFDALGQLTGG [L12D] — higher, 4.05
- LQLGEGVEFDVSPAFDALGQLTGG [L12S] — higher, 3.82
- LQLGEGVEFDVMPAFDALGQLTGG [L12M] — lower, 3.1
- LQLGEGVEFDVIPAFDALGQLTGG [L12I] — lower, 1.64
- LQLGEGVEFDVGPAFDALGQLTGG [L12G] — lower, 2.69
- LQLGEGPEFDVLPAFDALGQLTGG [V7P] — lower, 1.67
- LQLGEGKEFDVLPAFDALGQLTGG [V7K] — lower, 2.27
- LQLGEGTEFDVLPAFDALGQLTGG [V7T] — lower, 2.41
- LQLGEGDEFDVLPAFDALGQLTGG [V7D] — lower, 2.04
- LQLGEGEEFDVLPAFDALGQLTGG [V7E] — lower, 2.5
- LQLGEGAEFDVLPAFDALGQLTGG [V7A] — lower, 2.33
- LQLGEGHEFDVLPAFDALGQLTGG [V7H] — lower, 2.9
- LQLGEGFEFDVLPAFDALGQLTGG [V7F] — lower, 1.8
- LQLGEGVLFDVLPAFDALGQLTGG [E8L] — lower, 1.5
- LQLGEGVQFDVLPAFDALGQLTGG [E8Q] — lower, 1.67
- LQLGEGVKFDVLPAFDALGQLTGG [E8K] — lower, 1.83
- LQLGEGVWFDVLPAFDALGQLTGG [E8W] — lower, 1.98
- LQLGEGVNFDVLPAFDALGQLTGG [E8N] — lower, 2.4
- LQLGEGVHFDVLPAFDALGQLTGG [E8H] — lower, 2.07
- LQLGEGVEFDSLPAFDALGQLTGG [V11S] — lower, 2.59
- LQLGEGVEFDCLPAFDALGQLTGG [V11C] — lower, 2
- LQLGEGVEFDALPAFDALGQLTGG [V11A] — lower, 1.91
- LQLGEGVEFDKLPAFDALGQLTGG [V11K] — lower, 2.72
- LQLGEGVEFDLLPAFDALGQLTGG [V11L] — lower, 1.96
- LQLGEGVEFDPLPAFDALGQLTGG [V11P] — lower, 2.3
- LQLGEGVEFDVLPAFDANGQLTGG [L18N] — lower, 2.17
- LQLGEGVEFDVLPAFDAGGQLTGG [L18G] — lower, 3.58
- LQLGEGVEFDVLPAFDACGQLTGG [L18C] — lower, 2.62
- LQLGEGVEFDVLPAFDADGQLTGG [L18D] — lower, 3.47
- LQLGEGVEFDVLPAFDAVGQLTGG [L18V] — lower, 2
- LQLGEGVEFDVLPAFDAFGQLTGG [L18F] — lower, 1.14
- LQLGEGVEFDVLPAFDARGQLTGG [L18R] — lower, 2.79
- LQLGYGVEFDVLPAFDALGQLTGG [E5Y] — lower, 1.14
- LQLGMGVEFDVLPAFDALGQLTGG [E5M] — lower, 1.15
- LQLGWGVEFDVLPAFDALGQLTGG [E5W] — lower, 2.32
- LQLGGGVEFDVLPAFDALGQLTGG [E5G] — lower, 2.63
- LQLGTGVEFDVLPAFDALGQLTGG [E5T] — lower, 2.05
- LQLGHGVEFDVLPAFDALGQLTGG [E5H] — lower, 1.68
- LQLGPGVEFDVLPAFDALGQLTGG [E5P] — lower, 1.93
- LQLGNGVEFDVLPAFDALGQLTGG [E5N] — lower, 2.09
- LQLGCGVEFDVLPAFDALGQLTGG [E5C] — lower, 1.25
- LQLGEGVEFDVLGAFDALGQLTGG [P13G] — lower, 1.31
- LQLGEGVEFDVLDAFDALGQLTGG [P13D] — lower, 1.4
- LQLWEGVEFDVLPAFDALGQLTGG [G4W] — lower, 1.65
- LQLIEGVEFDVLPAFDALGQLTGG [G4I] — lower, 1.88
- LQLREGVEFDVLPAFDALGQLTGG [G4R] — lower, 1.78
- LQLYEGVEFDVLPAFDALGQLTGG [G4Y] — lower, 1.08
- LQLCEGVEFDVLPAFDALGQLTGG [G4C] — lower, 1.38
- LQLQEGVEFDVLPAFDALGQLTGG [G4Q] — lower, 2.75
- LQLEEGVEFDVLPAFDALGQLTGG [G4E] — lower, 3.05
- LQLGEGVEFDVLPAFDALGQLTIG [G23I] — lower, 1.19
- LQLGEGVEFDVLPAFDALGQLTTG [G23T] — lower, 1.67
- LQLGEGVEFDVLPAFDALGQLTCG [G23C] — lower, 1.52
- LQLGEGVEFDVLPAFDALGQLTKG [G23K] — lower, 2.13
- LQLGEGVEFDVLPAFDALGQLTSG [G23S] — lower, 1.74
- LQLGEGVEFDVLPAFDALGQLTLG [G23L] — lower, 1.4
- LQLGEGVESDVLPAFDALGQLTGG [F9S] — higher, 4.03
- LQLGEGVEQDVLPAFDALGQLTGG [F9Q] — higher, 3.84
- LQLGEGVEDDVLPAFDALGQLTGG [F9D] — higher, 3.88
- LQLGEGVEEDVLPAFDALGQLTGG [F9E] — higher, 4.37
- LQLGEGVENDVLPAFDALGQLTGG [F9N] — higher, 4.57
- LQLGEGVEKDVLPAFDALGQLTGG [F9K] — higher, 3.69
- LQLGEGVEHDVLPAFDALGQLTGG [F9H] — higher, 4.18
- LQLGEGVERDVLPAFDALGQLTGG [F9R] — higher, 3.67
- LQKGEGVEFDVLPAFDALGQLTGG [L3K] — higher, 3.97
- LQRGEGVEFDVLPAFDALGQLTGG [L3R] — lower, 3.24
- LQPGEGVEFDVLPAFDALGQLTGG [L3P] — higher, 4.01
- LQYGEGVEFDVLPAFDALGQLTGG [L3Y] — lower, 3.37
- LQNGEGVEFDVLPAFDALGQLTGG [L3N] — lower, 1.72
- LQSGEGVEFDVLPAFDALGQLTGG [L3S] — lower, 3.02
- LQGGEGVEFDVLPAFDALGQLTGG [L3G] — lower, 2.93
- LQCGEGVEFDVLPAFDALGQLTGG [L3C] — lower, 2.57
- LQTGEGVEFDVLPAFDALGQLTGG [L3T] — lower, 3.61
- LQQGEGVEFDVLPAFDALGQLTGG [L3Q] — lower, 3.6
- LQMGEGVEFDVLPAFDALGQLTGG [L3M] — lower, 2.34
- LQWGEGVEFDVLPAFDALGQLTGG [L3W] — lower, 2.49
- LQIGEGVEFDVLPAFDALGQLTGG [L3I] — lower, 2.26
- LQLGEGVEFDVLPAFDALGQLTGS [G24S] — lower, 1.81
- LQLGEGVEFDVLPAFDALGQLTGE [G24E] — lower, 2.31
- LQLGEGVEFDVLPAFDALGQLTGH [G24H] — lower, 3.16
- LQLGEGVEFDVLPAFDALGQLTGN [G24N] — lower, 1.5
- LQLGEGVEFDVLPAFDALGQLTGP [G24P] — lower, 1.64
